T1: His-tagged HM1.24 antigen, residues N49-A163 of the extracellular domain (human, UniProt Q10589 49-163)
T1 construct: Expressed in 293T cells, purified by Ni-NTA; not shown: N-terminal His-tag and Factor Xa cleavage site
T1 sequence: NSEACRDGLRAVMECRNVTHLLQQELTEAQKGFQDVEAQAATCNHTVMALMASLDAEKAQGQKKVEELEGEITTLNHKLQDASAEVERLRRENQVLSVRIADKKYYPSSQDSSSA


Legend:
[1] = biological target: T1, His-tagged HM1.24 antigen, residues …; assay: Biacore (SPR): His-tagged HM1.24 antigen coupled directly to the chip (NHS chemistry), antibody as analyte; separate kd and ka fitting
From the text: (§1) FIG. 17. Binding of anti-HM1.24 antibodies to HM1.24 antigen monitored by Biacore. In this format, HM1.24 antigen was coupled directly to the chip, and antibodies at multiple concentrations were used as analyte in this format.

[2] = biological target: T1, His-tagged HM1.24 antigen, residues …; assay: Biacore (SPR): His-tagged HM1.24 antigen coupled directly to the chip (NHS chemistry), antibody as analyte; simultaneous (global Langmuir) fitting
From the text: as §1

| Binder | koff [1] [s⁻¹] | kon [1] [M⁻¹ s⁻¹] | koff [2] [s⁻¹] | kon [2] [M⁻¹ s⁻¹] |
| --- | --- | --- | --- | --- |
| HM1.24_H1L4 (antibody, V domains shown, also called H1 and L4 combination; parent H1 antibody) VH: QVQLVQSGAEVKKPGASVKVSCKASGYTFTPYWMQWVRQAPGQGLEWMGSIFPGDGDTRYSQSFQGQVTISADKSISTAYMELSRLRSDDTAVYYCARGLRRGGYYFDYWGQGTLVTVSS VL: DIVMTQSPLSLPVTLGQPASISCKASQDVNTAVAWYLQKPGKSPKLLIYSASNRYTGVPDRITGSGSGTDFTLKISRVEAEDVGVYYCQQHYSTPFTFGSGTKLEIKR | 5.53e-05 | 966000 | 3.18e-05 | 834000 |
| HM1.24_H1L2 (antibody, human IgG1, kappa, V domains shown, also called H1 and L2 combination) VH: QVQLVQSGAEVKKPGASVKVSCKASGYTFTPYWMQWVRQAPGQGLEWMGSIFPGDGDTRYSQSFQGQVTISADKSISTAYMELSRLRSDDTAVYYCARGLRRGGYYFDYWGQGTLVTVSS VL: DIVMTQSPSSLSASVGDRVTITCQASQDVNTAVAWYQQKPDQSPKLLIYSASNRYTGVPDRITGSGSGTDFTLTISSLQAEDVAVYYCQQHYSTPFTFGSGTKLEIKR | 4.49e-05 | 782000 | 2.03e-05 | 754000 |
| Antibody comprising the HM1.24_H1.2 heavy chain variant and the HM1.24_L4 light chain (antibody, human IgG1, kappa, V domains shown) VH: QVQLVQSGAEVKKPGASVKVSCKASGYTFTPYWMQWVRQAPGQGLEWMGSIFPGSGDTRYSQSFQGQVTISADKSISTAYMELSRLRSDDTAVYYCARGLRRGGYYFDYWGQGTLVTVSS VL: DIVMTQSPLSLPVTLGQPASISCKASQDVNTAVAWYLQKPGKSPKLLIYSASNRYTGVPDRITGSGSGTDFTLKISRVEAEDVGVYYCQQHYSTPFTFGSGTKLEIKR | 9.54e-05 | 1.34e+06 | 7.99e-05 | 1.29e+06 |
| HM1.24_H0L0_IgG1_WT (antibody, also called WT anti-HM1.24 antibody; parent HM1.24_H0L0_IgG1 WT antibody) heavy: not shown light: DIVMTQSHKFMSTSVGDRVSITCKASQDVNTAVAWYQQKPGQSPKLLIYSASNRYTGVPDRITGSGSGTDFTFTISSVQAEDLALYYCQQHYSTPFTFGSGTKLEIKRTVAAPSVFIFPPSDEQLKSGTASVVCLLNNFYPREAKVQWKVDNALQSGNSQESVTEQDSKDSTYSLSSTLTLSKADYEKHKVYACEVTHQGLSSPVTKSFNRGEC | 4.4e-05 | 820000 | 3.57e-05 | 699000 |
| HM1.24_H0L0 IgG1 S239D/I332E (antibody) heavy: not shown light: DIVMTQSHKFMSTSVGDRVSITCKASQDVNTAVAWYQQKPGQSPKLLIYSASNRYTGVPDRITGSGSGTDFTFTISSVQAEDLALYYCQQHYSTPFTFGSGTKLEIKRTVAAPSVFIFPPSDEQLKSGTASVVCLLNNFYPREAKVQWKVDNALQSGNSQESVTEQDSKDSTYSLSSTLTLSKADYEKHKVYACEVTHQGLSSPVTKSFNRGEC | 5.5e-05 | 863000 | 4.03e-05 | 772000 |

Reference: patent US20100104557A1 (Xencor, published 2010)
